This note sets out measurements from patent US20250188176A1.

Test [1] addresses canine IL-4RA (construct not given) (canine). Nature of the test: SPR, combinatorial Fab-SASA clone. Background: SPR reads the build-up and loss of mass on a sensor chip optically.
The target is the same in test [2]. Nature of the test: SPR, IL-4RA immobilised, periplasmic Fab.

B1: AHF21170 (Fab, V domains shown, not shown: small tags and cut ends)
VH: EVQLVESGGDLVKPGGSLRLSCVASGFTFRDYAMTWVRQAPGKGLQWVSLINGSGGKTYYADAVKGRFTISRDNAKNTLYLQMNSLRAEDTAVYYCAVDRLTKTIRPQYYGLWVWGQGTLVTVSS
VL: DIVMTQTPLSLSVSPGETASISCRSSQSLTYSIGYNYLDWYLQKPGQSPQGLIYLGSKRASGVPDRFSGSGSGTDFTLRISRVEANDTGVYYCMQGLQSPLTFGQGTKLEIKR
Turning to B1, in test [1], the Kd (usually a measure of binding affinity in units of concentration) was 0.94 nM; the koff (as a rule, a measure of how fast the partners let go of each other) is 0.000138 s⁻¹; the kon (usually the rate constant with which the complex forms) was found to be 147000 M⁻¹ s⁻¹.

B2: AHF21173 (Fab, V domains shown, not shown: small tags and cut ends)
VH: EVQLVESGGDLVKPGGSLRLSCVASGFTFRDYAMTWVRQAPGKGLQWVSLINGSGGKTYYADAVKGRFTISRDNAKNTLYLQMNSLRAEDTAVYYCAVDRKTKTIRPQYYGLWVWGQGTLVTVSS
VL: DIVMTQTPLSLSVSPGETASISCRSSQSLTYSIGYNYLDWYLQKPGQSPQGLIYLGHKRASGVPDRFSGSGSGTDFTLRISRVEANDTGVYYCMQGLQSPLSFGQGTKLEIKR
Consider B2, for which, in test [1], the Kd was 0.606 nM, the koff was found to be 9.69e-05 s⁻¹ and the kon was found to be 160000 M⁻¹ s⁻¹.

B3: AHF21182 (Fab, V domains shown, not shown: small tags and cut ends)
VH: EVQLVESGGDLVKPGGSLRLSCVASGFTFRDYAMTWVRQAPGKGLQWVSLINGSGGKTYYADAVKGRFTISRDNAKNTLYLQMNSLRAEDTAVYYCAVDRLTKTIRPQYYGLWHWGQGTLVTVSS
VL: DIVMTQTPLSLSVSPGETASISCRSSQSLTYSIGYNYLDWYLQKPGQSPQGLIYLGHKRASGVPDRFSGSGSGTDFTLRISRVEANDTGVYYCMQGLQSPLLFGQGTKLEIKR
With B3, in test [1], the Kd is 0.442 nM, the koff is 0.000126 s⁻¹ and the kon is 286000 M⁻¹ s⁻¹.

B4: AHF21177 (Fab, V domains shown, not shown: small tags and cut ends)
VH: EVQLVESGGDLVKPGGSLRLSCVASGFTFRDYAMTWVRQAPGKGLQWVSLINGSGGKTYYADAVKGRFTISRDNAKNTLYLQMNSLRAEDTAVYYCAVDRLTKTIRPQYYGLWVWGQGTLVTVSS
VL: DIVMTQTPLSLSVSPGETASISCRSSQSLTYSIGYNYLDWYLQKPGQSPQGLIYLGSKRASGVPDRFSGSGSGTDFTLRISRVEANDTGVYYCMQGLQSPLGFGQGTKLEIKR
Consider B4, for which, in test [1], the Kd was 0.561 nM, the koff came out at 9.52e-05 s⁻¹ and the kon worked out at 170000 M⁻¹ s⁻¹.

B5: FJ2246MP10G04 (Fab, V domains shown)
VH: EVQLVESGGDLVKPGGSLRLSCVASGFTFRDYAMTWVRQAPGKGLQWVSLISGSGGKTYYADAVKGRFTISRDNAKNTLYLQMNSLRAEDTAVYYCAVDRLTKTIRPQYYGLWVWGQGTLVTVSS
VL: DIVMTQTPLSLSVSPGETASISCRSSQSLLYSIGYNYLDWYLQKPGQSPQGLIYLGSKRASGVPDRFSGSGSGTDFTLRISRVEAEDTGVYYCMQGLQSPLSFGQGTKLEIK
As for B5, in test [2], the Improvement over parental amounted to 2.1 fold, the RU max was found to be 251 RU and the koff turned out to be 0.000134 s⁻¹.

B6: AHF21172 (Fab, V domains shown, not shown: small tags and cut ends)
VH: EVQLVESGGDLVKPGGSLRLSCVASGFTFRDYAMTWVRQAPGKGLQWVSLINGSGGKTYYADAVKGRFTISRDNAKNTLYLQMNSLRAEDTAVYYCAVDRLTKTIRPQYYGLWVWGQGTLVTVSS
VL: DIVMTQTPLSLSVSPGETASISCRSSQSLLYSIGYNYLDWYLQKPGQSPQGLIYLGHKRASGVPDRFSGSGSGTDFTLRISRVEANDTGVYYCMQGLQSPLTFGQGTKLEIKR
Consider B6, for which, in test [1], the Kd was 0.74 nM, the koff is 0.000168 s⁻¹ and the kon came to 226000 M⁻¹ s⁻¹.

B7: FJ2246MP10D01 (Fab, V domains shown)
VH: EVQLVESGGDLVKPGGSLRLSCVASGFTFRDYAMTWVRQAPGKGLQWVSLISGSGGKTYYADAVKGRFTISRDNAKNTLYLQMNSLRAEDTAVYYCAVDRLTKTIRPQYYGLWVWGQGTLVTVSS
VL: DIVMTQTPLSLSVSPGETASISCRSSQSLLYSIGYNYLDWYLQKPGQSPQGLIYLGSKRASGVPDRFSGSGSGTDFTLRISRVEADDTGVYYCMQGLQSPLSFGQGTKLEIK
Take B7: in test [2], the Improvement over parental was determined as 2 fold, the RU max is 283 RU and the koff is 0.000137 s⁻¹.

B8: FJ2246MP06F11 (Fab, V domains shown)
VH: EVQLVESGGDLVKPGGSLRLSCVASGFTFRDYAMTWVRQAPGKGLQWVSLINGDGSKTYYADAVKGRFTISRDNAKNTLYLQMNSLRAEDTAVYYCAVDRLTKTIRPQYYGLWVWGQGTLVTVSS
VL: DIVMTQTPLSLSVSPGETASISCRSSQSLLYSIGYNYLDWYLQKPGQSPQGLIYLGSKRASGVPDRFSGSGSGTDFTLRISRVEANDTGVYYCMQGLQSPLTFGQGTKLEIKR
B8: in test [2], the Improvement over parental came out at 2 fold, the RU max came to 196 RU and the koff amounted to 0.000143 s⁻¹.

B9: FJ2246MP10E12 (Fab, V domains shown)
VH: EVQLVESGGDLVKPGGSLRLSCVASGFTFRDYAMTWVRQAPGKGLQWVSLISGSGGKTYYADAVKGRFTISRDNAKNTLYLQMNSLRAEDTAVYYCAVDRLTKTIRPQYYGLWVWGQGTLVTVSS
VL: DIVMTQTPLSLSVSPGETASISCRSSQSLLYSIGYNYLDWYLQKPGQSPQGLIYLGSKRASGVPDRFSGSGSGTDFTLRISRVEAEDTGVYYCMQGLQSPLSFGQGTKLEIK
Regarding B9, in test [2], the Improvement over parental was found to be 2 fold, the RU max turned out to be 251 RU and the koff came to 0.000139 s⁻¹.

B10: AHF21178 (Fab, V domains shown, not shown: small tags and cut ends)
VH: EVQLVESGGDLVKPGGSLRLSCVASGFTFRDYAMTWVRQAPGKGLQWVSLINGSGGKTYYADAVKGRFTISRDNAKNTLYLQMNSLRAEDTAVYYCAVDRLTKTIRPQYYGLWVWGQGTLVTVSS
VL: DIVMTQTPLSLSVSPGETASISCRSSQSLTYSIGYNYLDWYLQKPGQSPQGLIYLGSKRASGVPDRFSGSGSGTDFTLRISRVEANDTGVYYCMQGLQSPLSFGQGTKLEIKR
Regarding B10, in test [1], the Kd was 0.466 nM, the koff worked out at 8.27e-05 s⁻¹ and the kon worked out at 178000 M⁻¹ s⁻¹.

B11: FJ2246MP05G01 (Fab, V domains shown)
VH: EVQLVESGGDLVKPGGSLRLSCVASGFPFRDFAMTWVRQAPGKGLQWVSLISGSGGKTYYADAVKGRFTISRDNAKNTLYLQMNSLRAEDTAVYYCAVDRLTKTIRPQYYGLWVWGQGTLVTVSS
VL: DIVMTQTPLSLSVSPGETASISCRSSQSLLYSIGYNYLDWYLQKPGQSPQGLIYLGSKRASGVPDRFSGSGSGTDFTLRISRVEANDTGVYYCMQGLQSPLTFGQGTKLEIKR
For B11, in test [2], the Improvement over parental amounted to 2 fold, the RU max amounted to 344 RU and the koff was found to be 0.000142 s⁻¹.

B12: AHF21174 (Fab, V domains shown, not shown: small tags and cut ends)
VH: EVQLVESGGDLVKPGGSLRLSCVASGFTFRDYAMTWVRQAPGKGLQWVSLINGSGGKTYYADAVKGRFTISRDNAKNTLYLQMNSLRAEDTAVYYCAVDRLTKTIRPQYYGLWVWGQGTLVTVSS
VL: DIVMTQTPLSLSVSPGETASISCRSSQSLTYSIGYNYLDWYLQKPGQSPQGLIYLGHKRASGVPDRFSGSGSGTDFTLRISRVEANDTGVYYCMQGLQSPLSFGQGTKLEIKR
Take B12: in test [1], the Kd was found to be 0.521 nM, the koff turned out to be 9.58e-05 s⁻¹ and the kon was 184000 M⁻¹ s⁻¹.

B13: FJ2246MP06G06 (Parental Fab of TB640_005) (Fab, V domains shown)
VH: EVQLVESGGDLVKPGGSLRLSCVASGFTFRDYAMTWVRQAPGKGLQWVSLISGSGGKTYYADAVKGRFTISRDNAKNTLYLQMNSLRAEDTAVYYCAVDRLTKTIRPQYYGLWVWGQGTLVTVSS
VL: DIVMTQTPLSLSVSPGETASISCRSSQSLLYSIGYNYLDWYLQKPGQSPQGLIYLGSKRASGVPDRFSGSGSGTDFTLRISRVEANDTGVYYCMQGLQSPLTFGQGTKLEIKR
For B13, in test [2], the Improvement over parental was determined as 1 fold, the RU max was 105 RU and the koff turned out to be 0.00028 s⁻¹.

B14: AHF21171 (Fab, V domains shown, not shown: small tags and cut ends)
VH: EVQLVESGGDLVKPGGSLRLSCVASGFTFRDYAMTWVRQAPGKGLQWVSLINGSGGKTYYADAVKGRFTISRDNAKNTLYLQMNSLRAEDTAVYYCAVDRLTKTIRPQYYGLWHWGQGTLVTVSS
VL: DIVMTQTPLSLSVSPGETASISCRSSQSLLYSIGYNYLDWYLQKPGQSPQGLIYLGHKRASGVPDRFSGSGSGTDFTLRISRVEANDTGVYYCMQGLQSPLSFGQGTKLEIKR
In the case of B14, in test [1], the Kd was 0.47 nM, the koff amounted to 0.000134 s⁻¹ and the kon stood at 285000 M⁻¹ s⁻¹.

B15: FJ2246MP07E01 (Fab, V domains shown)
VH: EVQLVESGGDLVKPGGSLRLSCVASGFTFRDYAMTWVRQAPGKGLQWVSLISGSGGKTYYADAVKGRFTISRDNAKNTLYLQMNSLRAEDTAVYYCAVDRLTKTIRPQYYGLWSWGQGTLVTVSS
VL: DIVMTQTPLSLSVSPGETASISCRSSQSLLYSIGYNYLDWYLQKPGQSPQGLIYLGSKRASGVPDRFSGSGSGTDFTLRISRVEANDTGVYYCMQGLQSPLTFGQGTKLEIKR
Turning to B15, in test [2], the Improvement over parental worked out at 2.1 fold, the RU max stood at 423 RU and the koff stood at 0.000135 s⁻¹.

B16: FJ2246MP05A04 (Fab, V domains shown)
VH: EVQLVESGGDLVKPGGSLRLSCVASGLPFRDYAMTWVRQAPGKGLQWVSLISGSGGKTYYADAVKGRFTISRDNAKNTLYLQMNSLRAEDTAVYYCAVDRLTKTIRPQYYGLWVWGQGTLVTVSS
VL: DIVMTQTPLSLSVSPGETASISCRSSQSLLYSIGYNYLDWYLQKPGQSPQGLIYLGSKRASGVPDRFSGSGSGTDFTLRISRVEANDTGVYYCMQGLQSPLTFGQGTKLEIKR
Turning to B16, in test [2], the Improvement over parental came to 2 fold, the RU max came to 329 RU and the koff came to 0.000142 s⁻¹.

B17: AHF21180 (Fab, V domains shown, not shown: small tags and cut ends)
VH: EVQLVESGGDLVKPGGSLRLSCVASGFTFRDYAMTWVRQAPGKGLQWVSLINGSGGKTYYADAVKGRFTISRDNAKNTLYLQMNSLRAEDTAVYYCAVDRKTKTIRPQYYGLWHWGQGTLVTVSS
VL: DIVMTQTPLSLSVSPGETASISCRSSQSLTYSIGYNYLDWYLQKPGQSPQGLIYLGSKRASGVPDRFSGSGSGTDFTLRISRVEANDTGVYYCMQPLQSPLTFGQGTKLEIKR
Regarding B17, in test [1], the Kd was determined as 0.259 nM, the koff was determined as 5.68e-05 s⁻¹ and the kon was determined as 219000 M⁻¹ s⁻¹.

B18: AHF21176 (Fab, V domains shown, not shown: small tags and cut ends)
VH: EVQLVESGGDLVKPGGSLRLSCVASGFTFRDYAMTWVRQAPGKGLQWVSLINGSGGKTYYADAVKGRFTISRDNAKNTLYLQMNSLRAEDTAVYYCAVDRKTKTIRPQYYGLWHWGQGTLVTVSS
VL: DIVMTQTPLSLSVSPGETASISCRSSQSLTYSIGYNYLDWYLQKPGQSPQGLIYLGHKRASGVPDRFSGSGSGTDFTLRISRVEANDTGVYYCMQGLQSPLGFGQGTKLEIKR
As for B18, in test [1], the Kd was 0.309 nM, the koff turned out to be 9.11e-05 s⁻¹ and the kon amounted to 295000 M⁻¹ s⁻¹.
